# Laboratory results taken from the DeepSol protein solubility set.
# Experiment: soluble on expression in E. coli; label from the status in PepcDB or PDB records
row,Sequence,soluble on expression in E. coli
1,MASNRGQLNHELSKLFNELWDADQNRMKSGKDYRISLQGKAGYVPAGSNQARDSASFPLFQFVDEEKLKSRKTFATFISLLDNYEMDTGVAEVVTPEEIAENNNFLDAILETKVMKMAHDYLVRKNQAKPTRNDFKVQLYNIWFQLYSRAPGSRPDSCGFEHVFVGESKRGQEMMGLHNWVQFYLQEKRKNIDYKGYVARQNKSRPDEDDQVLNLQFNWKEMVKPVGSSFIGVSPEFEFALYTIVFLASQEKMSREVVRLEEYELQIVVNRHGRYIGTAYPVLLSTNNPDLY,soluble
2,MILAILQARMSSTRLPGKVLMPLQRQPMIVRQIERVARSKRIDKLVVATSDRPEDDAIEAAVRREGIAVFRGSLDNVQQRFIGALDAHPADHVVRLTADCPLADPTLIDATIDLCLSKGADYVSNTPEGHAHPKGTDVEVMTAAALRRAAAEATTKEAFEHVTWDLWNQPQRWTCAWLPCFPDQGAVRWTVDRPDDYAFVAAVYDALYPANRAFTSDDIRAFVAGRPDLQDYGGDRRALEHHHHHH,not soluble
3,MRGSHHHHHHGSTMDIKPAFGTNQEDYASYIMNGIIKWGDPVTRVLDDGELLVQQTKNSDRTPLVSVLLEGPPHSGKTALAAKIAEESNFPFIKICSPDKMIGFSETAKCQAMKKIFDDAYKSQLSCVVVDDIERLLDYVPIGPRFSNLVLQALLVLLKKAPPQGRKLLIIGTTSRKDVLQEMEMLNAFSTTIHVPNIATGEQLLEALELLGNFKDKERTTIAQQVKGKKVWIGIKKLLMLIEMSLQMDPEYRVRKFLALLREEGASPLDFK,soluble
4,MKDVTIYHNPRCSKSRETLALVEQQGITPQVVLYLETPPSVDKLKELLQQLGFSDARQLMRTKEDLYKTLNLDDRGLTQDQLLQAMADNPKLIERPIVVTQGKARIGRPPEQVLEILK,not soluble
5,MGSDKIHHHHHHMTSPHSFSVTPIRTMADGTIKQIHPFTGTEVWTVPGRGNRPLSHPASTIVELSAHDHTSYCAFCSDNMLSTPPEKSRIIIDSSGDFDILPGALPGELSETTPEFRRVPNLFEIVSFDYWHQNFGFDMDSETAMRMAQYLAIPEGREHVLAIVRTRLSAAGEDPAHMTDGELLEKAPSYFAGGHDVIIGRRHFVDDATTSDQLASSGTLTVKEHEAFIRLTVDGIRDLYHRNRYAPYVVAFQNWLKPAGASFDHLHKQLVAIDERGRLIADELHHLRGNPNMYNELAVDYAGYHNLIIAENDHAVAFAGFGHRYPTIEIYSKSAIPEPWLQSDEEIQAMSNLIHACHAATGADVPCNEEWVHKPIDVDMPMPWHVMIKWRVSTLAGFEGGTKVYLNTLSPHKVRDRVVKEMYRLRDEELIASDLRIAMECSVERNSLKYNPLL,not soluble
6,MIKQTIVALLLSVGASSVFAAGTVKVFSNGSSEAKTLTGAEHLIDLVGQPRLANSWWPGAVISEELATAAALRQQQALLTRLAEQGADSSADDAAAINALRQQIQALKVTGRQKINLDPDIVRVAERGNPPLQGNYTLWVGPPPSTVTLFGLISRPGKQPFTPGRDVASYLSDQSLLSGADRSYAWVVYPDGRTQKAPVAYWNKRHVEPMPGSIIYVGLADSVWSETPDALNADILQTLTQRIPQ,not soluble
7,MVWLANPERYGQMQYRYCGKSGLRLPALSLGLWHNFGHVNALESQRAILRKAFDLGITHFDLANNYGPPPGSAEENFGRLLREDFAAYRDELIISTKAGYDMWPGPYGSGGSRKYLLASLDQSLKRMGLEYVDIFYSHRVDENTPMEETASALAHAVQSGKALYVGISSYSPERTQKMVELLREWKIPLLIHQPSYNLLNRWVDKSGLLDTLQNNGVGCIAFTPLAQGLLTGKYLNGIPQDSRMHREGNKVRGLTPKMLTEANLNSLRLLNEMAQQRGQSMAQMALSWLLKDDRVTSVLIGASRAEQLEENVQALNNLTFSTKELAQIDQHIADGELNLWQASSDK,soluble
8,MSLAKVLVIDEDRSTLARLELLLTKDGYETVTASTGTDGLNRYVERYPDLVILDVFLSDVGGFTVLEELLEENEQAMVILMTAQLDMETAIRAMKLGAFDYVPKTADMAELLSVVHKASNTLETDRQQGGLSGEAFRNYKAGDIIGAGREMREIFKMVGVLSRSRATVLIEGESGTGKELVAKVIHKHTSSNEPFIAVNCSAIVETLLESELFGHEKGSFTSAFNRQLGKFELGRYGTVFLDEISEMSINLQAKLLRVLQEMEFERVGGKDKIQVHARIITATNKNLRTLVREGKFRADLYYRLNIVSLKIPPLRERQEDIPLLVNHLIAKIGRDLSRRISGVSEEVMEAFLRYTWPGNVRELENLLVRAGVMAKGRILDKSDFPELFKESGEGHHHHHH,not soluble
